Laboratory results from patent US20250213713A1, “Antibody-Drug Conjugates Targeting uPARAP Comprising Exatecan Derivatives” (ADCENDO APS, priority 2022, published 2025).

T1: soluble full-length uPARAP (UniProt Q9UBG0 31-1414, limits assumed)
T1 construct: also called CD280
T1 sequence (looked up): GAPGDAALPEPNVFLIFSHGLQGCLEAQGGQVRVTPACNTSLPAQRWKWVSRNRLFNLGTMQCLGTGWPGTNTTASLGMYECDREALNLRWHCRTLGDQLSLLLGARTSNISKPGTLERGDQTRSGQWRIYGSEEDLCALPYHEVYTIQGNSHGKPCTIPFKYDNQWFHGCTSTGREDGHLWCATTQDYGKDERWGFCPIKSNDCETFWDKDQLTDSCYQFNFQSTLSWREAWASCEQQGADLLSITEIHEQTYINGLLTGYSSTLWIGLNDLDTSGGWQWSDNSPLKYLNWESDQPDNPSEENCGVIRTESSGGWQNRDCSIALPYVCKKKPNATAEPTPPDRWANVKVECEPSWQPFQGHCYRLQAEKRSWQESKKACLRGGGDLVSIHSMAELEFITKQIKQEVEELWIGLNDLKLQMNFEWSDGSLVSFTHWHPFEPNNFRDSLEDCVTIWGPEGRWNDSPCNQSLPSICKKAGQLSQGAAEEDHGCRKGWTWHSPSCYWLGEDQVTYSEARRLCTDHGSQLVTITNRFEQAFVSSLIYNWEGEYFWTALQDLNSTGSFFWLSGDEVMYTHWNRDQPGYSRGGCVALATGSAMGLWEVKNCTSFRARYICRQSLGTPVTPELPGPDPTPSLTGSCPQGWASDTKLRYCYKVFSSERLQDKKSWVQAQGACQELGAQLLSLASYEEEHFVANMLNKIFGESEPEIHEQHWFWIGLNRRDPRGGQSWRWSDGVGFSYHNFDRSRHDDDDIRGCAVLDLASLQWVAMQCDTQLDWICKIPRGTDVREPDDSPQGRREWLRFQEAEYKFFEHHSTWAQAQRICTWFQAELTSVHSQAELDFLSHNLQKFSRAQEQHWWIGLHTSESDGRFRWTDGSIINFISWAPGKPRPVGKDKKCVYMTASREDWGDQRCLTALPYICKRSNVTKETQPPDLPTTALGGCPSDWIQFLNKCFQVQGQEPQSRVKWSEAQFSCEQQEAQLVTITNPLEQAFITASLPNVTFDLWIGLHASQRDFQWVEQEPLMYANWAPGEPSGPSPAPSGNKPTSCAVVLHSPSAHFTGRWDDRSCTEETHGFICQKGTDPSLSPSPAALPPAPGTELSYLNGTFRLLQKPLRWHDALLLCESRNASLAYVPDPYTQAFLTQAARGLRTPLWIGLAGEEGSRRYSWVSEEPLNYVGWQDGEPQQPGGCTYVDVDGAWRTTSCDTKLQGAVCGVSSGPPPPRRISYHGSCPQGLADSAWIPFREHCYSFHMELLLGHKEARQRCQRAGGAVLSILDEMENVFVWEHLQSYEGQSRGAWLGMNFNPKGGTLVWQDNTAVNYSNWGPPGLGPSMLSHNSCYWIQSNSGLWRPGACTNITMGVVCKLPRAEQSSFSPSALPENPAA

B1: 980.2 LC4HC3 (humanized 9b7 antibody) (antibody, human IgG1, kappa, V domains shown)
VH: QVQLVQSGAEVKKPGASVKVSCKASGYIFIDYGMHWVRQAPGQRLEWMGSINTKSGVSTYAAEFKGRVTIYSDTSASTAYMELSSLRSEDTAVYFCARPPYYSQYGSYWGQGTLVTVSS
VL: EIVMTQSPDSLAVSLGERATINCKASQNVDTYVVWYQQKPGQPPQPLIYSASSRFSGVPDRFSGSGSGTDFTLTISSLQAEDVAIYYCQQYHNSPLTFGGGTKVEIKR
notes: Complete IgG1 kappa, expressed in CHO cells; captured by anti-human Fc in the SPR assay
B2: 980.2 LC0HC0 (chimeric antibody: variable domains of murine 9b7 fused to human IgG1 kappa constant regions) (antibody, V domains shown)
VH: QVHLVQSGPELKKPGETVKISCKASGYIFIDYGMHWVKQAPGKGLKWMGSINTKSGVSTYAAEFKGRFAFSLETSASTAYLQINNLKNEDTATYFCARPPYYSQYGSYWGQGTLVTVSA
VL: DIVMTQSQKFMSTSVGDRVSVTCKASQNVDTYVVWYQQKPGQSPKPLIYSASSRFSGVPDRFTGTGSGTDFTLTINNVQSEDLAEYFCQQYHNSPLTFGGGTKLEIKR
notes: Complete IgG1 kappa, expressed in CHO cells; captured by anti-human Fc in the SPR assay; also called parental antibody

Experiments:
[1] = tested on: NCI-N87 cells; assay: Inhibition of in vitro proliferation of tumor cells (CTG), NCI-N87; format: cell-based; details: read-out: NCI-N87 IC50; Table 8, 6 days of culture
Procedure: (§1) To test the inhibitory activity of the pharmaceutical compounds on the in vitro proliferation of NCI-N87, JIMT-1 and MBA-MB-231 tumor cells. The cells were treated with the compounds at different concentrations in vitro, and after 6 days of culture, the proliferation of cells was detected using the CTG (CellTiter-Glo® Luminescent Cell Viability Assay, Promega, Cat. No. G7558) reagent, and the in vitro activity of the compounds was evaluated according to the IC50 value. […]
(§2) There were 8 concentrations in total for the small molecule compounds: 300 nM, 100 nM, 30 nM, 10 nM, 3 nM, 1 nM, 0.3 nM, and 0.1 nM. • 5. Sample adding: the prepared samples to be detected at different concentrations were added to the culture plate, and two duplicate wells were set for each sample. […] Plate reading: the 96-well cell culture plate was taken out, placed in a microplate reader, and measured for the chemiluminescence using the microplate reader.
as §1, with “with” for “with the”, “using” for “using the”, “reagents,” for “reagent,”, “value. • 1.” for “value.”

[2] = tested on: JIMT-1 cells; assay: Inhibition of in vitro proliferation of tumor cells (CTG), JIMT-1; format: cell-based; details: read-out: JIMT-1 IC50; Table 8, 6 days of culture
Procedure: as §1, §2
as §1, with “with” for “with the”, “using” for “using the”, “reagents,” for “reagent,”, “value. • 1.” for “value.”

[3] = biological target: T1, soluble full-length uPARAP; assay: SPR (Biacore 2000), ratio of KD values against LC0HC0
Procedure: (§3) SPR analyses were performed for determination of the affinity of the obtained antibodies towards uPARAP. These analyses were performed using a Biacore 2000 instrument (Biaffin GmbH, Kassel, Germany) using a CM5 sensor chip with an anti-human Fc capture surface for antibody binding. The analysis temperature was set at 25° C. Binding of antibody onto this surface was followed by passing soluble full-length uPARAP over the chip, and the resulting association and dissociation rates were derived from the resulting binding curves. For kinetic interaction analyses, a flowrate of 30 μL/min was used and the analysis buffer consisted of 10 mM HEPES pH 7.4, 150 mM NaCl, 3 mM EDTA, 0.05% Tween 20.
(§4) LC4HC3 and LC0HC0 were analyzed by SPR as described in Materials and Methods above. In particular, the binding kinetics of LC4HC3 were compared with those of LC0HC0 (Table 5).

[4] = biological target: T1, soluble full-length uPARAP; assay: SPR (Biacore 2000), antibody captured on anti-human Fc CM5 chip, soluble full-length uPARAP as analyte, 25 C, Langmuir 1:1 global fit
Procedure: as §3, §4

Molecule	IC50 [1] [nM]	IC50 [2] [nM]	fold higher ligand affinity than LC0HC0 [3] [fold]	Kd [4] [nM]	koff [4] [s⁻¹]	kon [4] [M⁻¹ s⁻¹]
CC[C@@]1(O)C(=O)OCc2c1cc1n(c2=O)Cc2c-1nc1cc(F)c(C)c3c1c2[C@@H](NC(=O)CCS)CC3 [P-III-2]	108	108				
CC[C@@]1(O)C(=O)OCc2c1cc1n(c2=O)Cc2c-1nc1cc(F)c(C)c3c1c2[C@@H](NC(=O)CC(C)(C)O)CC3 [P-III-21]	4.75	2.87				
B1			~1.7	0.5	4.04e-05	81300
B2				0.86	5.33e-05	62300
